Results published in patent US20220306695A1, “COMPSTATIN ANALOGUES AND THEIR MEDICAL USES” (priority 2019, published 2022).
Starred links: 1 amine or outer side, 2 acyl side, 3 side chain; linkers in the order of their positions; H or OH if unused. Positions of bridges follow the written chain, without caps; N, C: chain ends. Non-standard residues stand in square brackets, D forms with d. Groups on a side chain read outwards from the residue. *: point of attachment. Trp(1-Me) = Cn1cc(C[C@H](N)C(=O)O)c2ccccc21; C18 diacid = O=C(O)CCCCCCCCCCCCCCCCC(=O)*; C16 diacid = O=C(O)CCCCCCCCCCCCCCC(=O)*; γGlu = O=C(O)[C@H](CCC(=O)[*:2])N[*:1]; hCys = N[C@@H](CCS)C(=O)O; AEEA = NCCOCCOCC(=O)O; Sar = CNCC(=O)O

Assays:
Human C3 [1] = target: T1, Human C3 (human, UniProt P01024 23-1663); assay: SPR, C3 immobilised
T1 construct: In SPR the bought human C3 was immobilised on CM5 chips by amine coupling; In the haemolysis assay the C3 is that of diluted human serum; also called complement C3
T1 sequence (P01024 23-1663 limits assumed): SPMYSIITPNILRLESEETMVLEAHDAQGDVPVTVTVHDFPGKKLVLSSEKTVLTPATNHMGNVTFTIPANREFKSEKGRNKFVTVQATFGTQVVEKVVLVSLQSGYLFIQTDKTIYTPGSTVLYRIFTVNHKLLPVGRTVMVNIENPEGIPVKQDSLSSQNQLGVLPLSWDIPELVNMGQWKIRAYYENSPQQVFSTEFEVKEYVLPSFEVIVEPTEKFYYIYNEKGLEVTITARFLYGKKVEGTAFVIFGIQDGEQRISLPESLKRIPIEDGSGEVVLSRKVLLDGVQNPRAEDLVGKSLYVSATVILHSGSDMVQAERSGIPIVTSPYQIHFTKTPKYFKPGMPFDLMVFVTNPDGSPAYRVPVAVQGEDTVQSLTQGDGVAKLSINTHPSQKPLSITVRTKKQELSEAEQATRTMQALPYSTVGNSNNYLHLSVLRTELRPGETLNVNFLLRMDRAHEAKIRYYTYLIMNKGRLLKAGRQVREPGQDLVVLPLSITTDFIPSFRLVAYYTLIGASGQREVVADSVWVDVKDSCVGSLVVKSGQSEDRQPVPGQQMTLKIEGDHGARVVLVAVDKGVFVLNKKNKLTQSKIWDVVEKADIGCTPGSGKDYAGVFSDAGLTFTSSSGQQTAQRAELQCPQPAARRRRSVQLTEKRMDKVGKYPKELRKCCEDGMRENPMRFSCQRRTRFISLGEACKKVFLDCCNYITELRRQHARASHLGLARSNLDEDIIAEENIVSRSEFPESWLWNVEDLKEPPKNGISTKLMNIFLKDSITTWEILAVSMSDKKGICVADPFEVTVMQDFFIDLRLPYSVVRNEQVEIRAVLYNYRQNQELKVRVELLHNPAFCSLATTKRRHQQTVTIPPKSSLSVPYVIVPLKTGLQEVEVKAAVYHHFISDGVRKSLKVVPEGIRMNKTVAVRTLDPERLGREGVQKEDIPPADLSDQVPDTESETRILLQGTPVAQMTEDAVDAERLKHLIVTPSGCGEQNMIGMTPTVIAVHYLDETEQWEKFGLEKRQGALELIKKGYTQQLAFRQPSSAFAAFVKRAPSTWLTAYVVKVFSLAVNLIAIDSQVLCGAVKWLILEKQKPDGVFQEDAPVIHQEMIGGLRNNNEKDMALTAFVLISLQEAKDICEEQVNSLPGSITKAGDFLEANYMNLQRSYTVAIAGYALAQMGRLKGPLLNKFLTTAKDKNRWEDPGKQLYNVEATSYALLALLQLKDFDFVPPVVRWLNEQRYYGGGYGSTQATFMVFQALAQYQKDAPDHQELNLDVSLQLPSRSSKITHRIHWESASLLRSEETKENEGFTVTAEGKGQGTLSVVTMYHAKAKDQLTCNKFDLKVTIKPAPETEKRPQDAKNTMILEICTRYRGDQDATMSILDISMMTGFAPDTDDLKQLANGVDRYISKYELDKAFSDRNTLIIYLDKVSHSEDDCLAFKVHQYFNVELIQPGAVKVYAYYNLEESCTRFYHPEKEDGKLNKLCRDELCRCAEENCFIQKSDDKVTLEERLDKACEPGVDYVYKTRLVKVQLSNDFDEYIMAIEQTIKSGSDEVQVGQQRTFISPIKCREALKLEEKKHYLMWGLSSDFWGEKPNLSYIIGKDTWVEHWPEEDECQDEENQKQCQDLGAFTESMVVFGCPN
Description: Surface plasmon resonance (SPR) was used to characterize peptides with respect to their binding affinity (Kd) for C3. Human C3 (Complement tech cat #A1 13c) was immobilised on individual flow cells of CM5 sensor chips (GE Healthcare) using standard amine coupling to a density of approximately 3000 resonance units (RU) in a buffer consisting of 10 mM phosphate pH 7.4, 150 mM NaCl, 0.05% Tween20.
For interaction experiments a multi-cycle experiment approach was used and performed using either a Biacore™ T200 or Biacore™ X100 instrument (GE Healthcare) at 25° C. Peptides were injected in increasing concentration series (5-8 different concentrations) for 60-120 s at a flow rate of 30 μL/min in a buffer consisting of 10 mM Tris buffer at pH 7.4, with 150 mM NaCl and 0.05% Tween20. This was followed by a dissociation period for up to 10 min. The C3 surface was regenerated between runs by a 45 s injection of 3 M MgCl₂.
Sensorgrams were double-referenced (reference surface, blanks) prior to analysis of the kinetic profiles by globally fitting data to a 1:1 Langmuir binding model to obtain association and dissociation rates for calculation of the equilibrium dissociation constant Kd. Each peptide was tested at in at least 2 independent experiments.

Human C3 [2] = target: T1, Human C3; assay: cell-based or functional assay

Binder	Kd (Human C3 [1]) [nM]	IC50[nM], inhibition of hemolysis (Human C3 [2]) [nM]
Ac-SEFCI[Trp(1-Me)]QDWGEHRC[Sar]EGE[AEEA][AEEA]K([γGlu-Gly-γGlu-C16 diacid])-NH2 (disulfide 4-14) [Compound 127]	8.5	< 100
Ac-SEFCI[Trp(1-Me)]QDWGEHRCTEGEGGGK([γGlu-Gly-γGlu-C18 diacid])-NH2 (disulfide 4-14; SMILES CC[C@H](C)[C@@H]1NC(=O)[C@@H](NC(=O)[C@H](Cc2ccccc2)NC(=O)[C@H](CCC(=O)O)NC(=O)[C@H](CO)NC(C)=O)CSSC[C@@H](C(=O)N[C@H](C(=O)N[C@@H](CCC(=O)O)C(=O)NCC(=O)N[C@@H](CCC(=O)O)C(=O)NCC(=O)NCC(=O)NCC(=O)N[C@@H](CCCCNC(=O)CC[C@H](NC(=O)CNC(=O)CC[C@H](NC(=O)CCCCCCCCCCCCCCCCC(=O)O)C(=O)O)C(=O)O)C(N)=O)[C@@H](C)O)NC(=O)[C@H](CCCNC(=N)N)NC(=O)[C@H](Cc2c[nH]cn2)NC(=O)[C@H](CCC(=O)O)NC(=O)CNC(=O)[C@H](Cc2c[nH]c3ccccc23)NC(=O)[C@H](CC(=O)O)NC(=O)[C@H](CCC(N)=O)NC(=O)[C@H](Cc2cn(C)c3ccccc23)NC1=O) [Compound 130]	4.4	< 100
Ac-SEFCI[Trp(1-Me)]QDWGEHRC[Sar]EGESESK([γGlu-C18 diacid])-NH2 (disulfide 4-14; SMILES CC[C@H](C)[C@@H]1NC(=O)[C@@H](NC(=O)[C@H](Cc2ccccc2)NC(=O)[C@H](CCC(=O)O)NC(=O)[C@H](CO)NC(C)=O)CSSC[C@@H](C(=O)N(C)CC(=O)N[C@@H](CCC(=O)O)C(=O)NCC(=O)N[C@@H](CCC(=O)O)C(=O)N[C@@H](CO)C(=O)N[C@@H](CCC(=O)O)C(=O)N[C@@H](CO)C(=O)N[C@@H](CCCCNC(=O)CC[C@H](NC(=O)CCCCCCCCCCCCCCCCC(=O)O)C(=O)O)C(N)=O)NC(=O)[C@H](CCCNC(=N)N)NC(=O)[C@H](Cc2c[nH]cn2)NC(=O)[C@H](CCC(=O)O)NC(=O)CNC(=O)[C@H](Cc2c[nH]c3ccccc23)NC(=O)[C@H](CC(=O)O)NC(=O)[C@H](CCC(N)=O)NC(=O)[C@H](Cc2cn(C)c3ccccc23)NC1=O) [Compound 141]	6.6	< 100
Ac-SEFCI[Trp(1-Me)]QDWGEHRC[Sar]EGESESK([γGlu-Gly-γGlu-C18 diacid])-NH2 (disulfide 4-14; SMILES CC[C@H](C)[C@@H]1NC(=O)[C@@H](NC(=O)[C@H](Cc2ccccc2)NC(=O)[C@H](CCC(=O)O)NC(=O)[C@H](CO)NC(C)=O)CSSC[C@@H](C(=O)N(C)CC(=O)N[C@@H](CCC(=O)O)C(=O)NCC(=O)N[C@@H](CCC(=O)O)C(=O)N[C@@H](CO)C(=O)N[C@@H](CCC(=O)O)C(=O)N[C@@H](CO)C(=O)N[C@@H](CCCCNC(=O)CC[C@H](NC(=O)CNC(=O)CC[C@H](NC(=O)CCCCCCCCCCCCCCCCC(=O)O)C(=O)O)C(=O)O)C(N)=O)NC(=O)[C@H](CCCNC(=N)N)NC(=O)[C@H](Cc2c[nH]cn2)NC(=O)[C@H](CCC(=O)O)NC(=O)CNC(=O)[C@H](Cc2c[nH]c3ccccc23)NC(=O)[C@H](CC(=O)O)NC(=O)[C@H](CCC(N)=O)NC(=O)[C@H](Cc2cn(C)c3ccccc23)NC1=O) [Compound 139]	7.4	< 100
Ac-SEFCI[Trp(1-Me)]QDWGEHRC[Sar]EGAK([AEEA-γGlu-AEEA-Gly-γGlu-C18 diacid])-NH2 (disulfide 4-14; SMILES CC[C@H](C)[C@@H]1NC(=O)[C@@H](NC(=O)[C@H](Cc2ccccc2)NC(=O)[C@H](CCC(=O)O)NC(=O)[C@H](CO)NC(C)=O)CSSC[C@@H](C(=O)N(C)CC(=O)N[C@@H](CCC(=O)O)C(=O)NCC(=O)N[C@@H](C)C(=O)N[C@@H](CCCCNC(=O)COCCOCCNC(=O)CC[C@H](NC(=O)COCCOCCNC(=O)CNC(=O)CC[C@H](NC(=O)CCCCCCCCCCCCCCCCC(=O)O)C(=O)O)C(=O)O)C(N)=O)NC(=O)[C@H](CCCNC(=N)N)NC(=O)[C@H](Cc2c[nH]cn2)NC(=O)[C@H](CCC(=O)O)NC(=O)CNC(=O)[C@H](Cc2c[nH]c3ccccc23)NC(=O)[C@H](CC(=O)O)NC(=O)[C@H](CCC(N)=O)NC(=O)[C@H](Cc2cn(C)c3ccccc23)NC1=O) [Compound 119]	9.8	< 100
Ac-SEYCI[Trp(1-Me)]QEWGEHRC[Sar]EGAK([AEEA-γGlu-AEEA-Gly-γGlu-C18 diacid])-NH2 (disulfide 4-14; SMILES CC[C@H](C)[C@@H]1NC(=O)[C@@H](NC(=O)[C@H](Cc2ccc(O)cc2)NC(=O)[C@H](CCC(=O)O)NC(=O)[C@H](CO)NC(C)=O)CSSC[C@@H](C(=O)N(C)CC(=O)N[C@@H](CCC(=O)O)C(=O)NCC(=O)N[C@@H](C)C(=O)N[C@@H](CCCCNC(=O)COCCOCCNC(=O)CC[C@H](NC(=O)COCCOCCNC(=O)CNC(=O)CC[C@H](NC(=O)CCCCCCCCCCCCCCCCC(=O)O)C(=O)O)C(=O)O)C(N)=O)NC(=O)[C@H](CCCNC(=N)N)NC(=O)[C@H](Cc2c[nH]cn2)NC(=O)[C@H](CCC(=O)O)NC(=O)CNC(=O)[C@H](Cc2c[nH]c3ccccc23)NC(=O)[C@H](CCC(=O)O)NC(=O)[C@H](CCC(N)=O)NC(=O)[C@H](Cc2cn(C)c3ccccc23)NC1=O) [Compound 122]	63	< 500
Ac-SEFCI[Trp(1-Me)]QDWGEHRC[Sar]EGE[AEEA]ESK([γGlu-γGlu-C18 diacid])-NH2 (disulfide 4-14) [Compound 140]	7.6	< 100

Continued, in another order:

Kd (Human C3 [1]) [nM]	Binder	IC50[nM], inhibition of hemolysis (Human C3 [2]) [nM]
3.5	Ac-SEFAI[Trp(1-Me)]QDWGEHR[hCys]TEGEGGGK([γGlu-Gly-γGlu-C18 diacid])-NH2 (thioether 4-14; SMILES CC[C@H](C)[C@@H]1NC(=O)[C@@H](NC(=O)[C@H](Cc2ccccc2)NC(=O)[C@H](CCC(=O)O)NC(=O)[C@H](CO)NC(C)=O)CSCC[C@@H](C(=O)N[C@H](C(=O)N[C@@H](CCC(=O)O)C(=O)NCC(=O)N[C@@H](CCC(=O)O)C(=O)NCC(=O)NCC(=O)NCC(=O)N[C@@H](CCCCNC(=O)CC[C@H](NC(=O)CNC(=O)CC[C@H](NC(=O)CCCCCCCCCCCCCCCCC(=O)O)C(=O)O)C(=O)O)C(N)=O)[C@@H](C)O)NC(=O)[C@H](CCCNC(=N)N)NC(=O)[C@H](Cc2c[nH]cn2)NC(=O)[C@H](CCC(=O)O)NC(=O)CNC(=O)[C@H](Cc2c[nH]c3ccccc23)NC(=O)[C@H](CC(=O)O)NC(=O)[C@H](CCC(N)=O)NC(=O)[C@H](Cc2cn(C)c3ccccc23)NC1=O) [Compound 157]	< 100
0.71	SEFAIWQDWGEHRCGEXXK (not fully specified; N-acetyl; C-terminal amide; delta-cystathionine (Ctt2) thioether bridge A4-hCys14 (hCys written C); W6 is 1-Me-Trp; G10 is Sar; G15 is Sar; X17 and X18 are Peg3; K19 side chain bears [17-carboxy-heptadecanoyl][γGlu]G[γGlu]) [Compound 147]	< 100
6.4	Ac-SEF[hCys]I[Trp(1-Me)]QDW[Sar]EHRA[Sar]E[AEEA][AEEA]K([γGlu-Gly-γGlu-C18 diacid])-NH2 (thioether 4-14) [Compound 164]	< 100
2.4	Ac-SEFAI[Trp(1-Me)]QDWGEHR[hCys][Sar]EGAK([AEEA-γGlu-AEEA-Gly-γGlu-C18 diacid])-NH2 (thioether 4-14; not fully specified) [Compound 154]	< 100
4.8	Ac-SEFCI[Trp(1-Me)]QDWGEHRCTEGE[AEEA]ESK([γGlu-C18 diacid])-NH2 (disulfide 4-14) [Compound 142]	< 100
0.56	SEFAIWQDWGEHRCGEGEXESK (not fully specified; N-acetyl; C-terminal amide; delta-cystathionine (Ctt2) thioether bridge A4-hCys14 (hCys written C); W6 is 1-Me-Trp; G10 is Sar; G15 is Sar; X19 is Peg3; K22 side chain bears [17-carboxy-heptadecanoyl][γGlu]G[γGlu]) [Compound 150]	< 100
20.7	Ac-SEF[hCys]I[Trp(1-Me)]QDWGEHRATEGE[AEEA]ESK([γGlu-C18 diacid])-NH2 (thioether 4-14; SMILES CC[C@H](C)[C@@H]1NC(=O)[C@@H](NC(=O)[C@H](Cc2ccccc2)NC(=O)[C@H](CCC(=O)O)NC(=O)[C@H](CO)NC(C)=O)CCSC[C@@H](C(=O)N[C@H](C(=O)N[C@@H](CCC(=O)O)C(=O)NCC(=O)N[C@@H](CCC(=O)O)C(=O)NCCOCCOCC(=O)N[C@@H](CCC(=O)O)C(=O)N[C@@H](CO)C(=O)N[C@@H](CCCCNC(=O)CC[C@H](NC(=O)CCCCCCCCCCCCCCCCC(=O)O)C(=O)O)C(N)=O)[C@@H](C)O)NC(=O)[C@H](CCCNC(=N)N)NC(=O)[C@H](Cc2c[nH]cn2)NC(=O)[C@H](CCC(=O)O)NC(=O)CNC(=O)[C@H](Cc2c[nH]c3ccccc23)NC(=O)[C@H](CC(=O)O)NC(=O)[C@H](CCC(N)=O)NC(=O)[C@H](Cc2cn(C)c3ccccc23)NC1=O) [Compound 165]	< 250
